B1: HypD (natural protein, E. coli, UniProt P24192 1-373, looked up)
chain: MRFVDEYRAPEQVMQLIEHLRERASHLSYTAERPLRIMEVCGGHTHAIFKFGLDQLLPENVEFIHGPGCPVCVLPMGRIDTCVEIASHPEVIFCTFGDAMRVPGKQGSLLQAKARGADVRIVYSPMDALKLAQENPTRKVVFFGLGFETTMPTTAITLQQAKARDVQNFYFFCQHITLIPTLRSLLEQPDNGIDAFLAPGHVSMVIGTDAYNFIASDFHRPLVVAGFEPLDLLQGVVMLVQQKIAAHSKVENQYRRVVPDAGNLLAQQAIADVFCVNGDSEWRGLGVIESSGVHLTPDYQRFDAEAHFRPAPQQVCDDPRARCGEVLTGKCKPHQCPLFGNTCNPQTAFGALMVSSEGACAAWYQYRQQESEA
notes: HypD, hydrogenase maturation factor of Escherichia coli; printed mass 41,363.4 Da without and 41,715 Da with the [4Fe-4S] cluster; Carries a [4Fe-4S] cluster in all isolated complexes; No tag is named for HypD; also called native HypD; source: co-purified anoxically with it (StrepTactin Sepharose, when required Q-Sepharose)
B2: StrepII-tagged HypC (natural protein, E. coli, UniProt P0AAM3 2-90, looked up)
chain: CIGVPGQIRTIDGNQAKVDVCGIQRDVDLTLVGSCDENGQPRVGQWVLVHVGFAMSVINEAEARDTLDALQNMFDVEPDVGALLYGEEK
modifications: mixed population: unmodified species and species with +26 Da, +28 Da (CO or formyl), +16 Da (oxidation) and +136 Da (proposed Fe(CN)2CO) modifications, all associated with or dependent on the N-terminal cysteine residue (Cys2)
notes: HypC, hydrogenase maturation factor of Escherichia coli; lacks M1 (formyl-methionine lost after translation), so that Cys2 is the N-terminal residue; deconvoluted mass with the StrepII tag 10,641.5 Da; also called HypCStrep; StrepII-HypC; source: purified anoxically (StrepTactin Sepharose, when required Q-Sepharose); not shown: StrepII, C-terminal, kept
B3: StrepII-tagged HypC(C2A) (natural protein, E. coli, UniProt P0AAM3 2-90, looked up)
chain: B2 chain with C1A
notes: HypC of Escherichia coli with the exchange C2A (codon 2 TGC to GCG); single major species, deconvoluted mass 10,611 Da, without the modifications seen on native HypC; lacking M1 as native HypC; also called StrepII-HypCC2A; source: E. coli DHP-D (ΔhypD) carrying pT-hypDC(C2A)Strep, co-produced with HypD; purified anoxically (StrepTactin Sepharose); not shown: StrepII, C-terminal, kept

In the assay “StrepII-tagged HypC” the target is B2. Put plainly: native MS; anaerobically isolated StrepII-tagged HypC-HypD complexes, about 10 μM, 500 mM ammonium acetate pH 6.8, nano-ESI High-Mass Q-TOF II, collision energy 30 V (90 V for CID dissociation); complexes from DHP-D, ΔsufA, ΔiscU and ΔentC-ΔfeoB strains. To be noted: both partners purified.
Assay [1] concerns the target B1. As to the kind of experiment: pull-down; StrepII-tagged HypC co-produced with HypD in E. coli strains with defects in iron metabolism; anoxic StrepTactin Sepharose affinity purification; SDS-PAGE with Coomassie staining and western blots with antisera against HypD and HypC. The conditions noted are these: partners not purified. For orientation: Immunoblotting shows a protein as a band on a membrane.

For assay [2], the target named is B1. As to the kind of experiment: native MS; anaerobically isolated StrepII-tagged HypC-HypD complexes, about 10 μM, 500 mM ammonium acetate pH 6.8, nano-ESI High-Mass Q-TOF II, collision energy 30 V (90 V for CID dissociation); complexes from DHP-D, ΔsufA, ΔiscU and ΔentC-ΔfeoB strains. To be noted: both partners purified.

Where a chain is given by its changes, count along the chain named. Numbers in names are those of the source. Where “and” joins values, the source holds several entries; their conditions need not be identical. Equal entries are not always repeated.

As for B1, in the assay with StrepII-tagged HypC, the “stoichiometry N” value is 1 HypC:HypD; the “stoichiometry of a minor complex species” value is 2 HypC:HypD (2:1) and 1 HypC:HypD (2:2).

For the molecule B2, the binding result with HypD [1] was “binds”.

For the molecule B3, the binding result with HypD [2] is recorded as “binds”.

Source of the values: PMC10847431, “Evidence the Isc iron–sulfur cluster biogenesis machinery is the source of iron for [NiFe]-cofactor biosynthesis in Escherichia coli” (Scientific Reports, 2024).
